Assay results from US20240069022A1 (ASAHI KASEI, published 2024).

T1: recombinant ribosomal protein L7/L12 of Pseudomonas aeruginosa, tag fusion protein (Pseudomonas aeruginosa, UniProt Q9HWC8 1-122)
T1 sequence: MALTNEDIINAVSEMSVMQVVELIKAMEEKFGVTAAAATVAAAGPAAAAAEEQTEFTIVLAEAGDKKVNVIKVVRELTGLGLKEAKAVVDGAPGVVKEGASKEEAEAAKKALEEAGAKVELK

T2: recombinant ribosomal protein L7/L12 of Bacillus subtilis, tag fusion protein (Bacillus subtilis, UniProt P02394 1-123)
T2 sequence: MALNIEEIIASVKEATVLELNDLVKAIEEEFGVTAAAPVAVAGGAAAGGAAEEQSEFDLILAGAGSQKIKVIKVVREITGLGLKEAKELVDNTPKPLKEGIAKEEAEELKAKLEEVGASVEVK

T3: ribosome protein L7/L12 of Pseudomonas aeruginosa, native, in bacterial lysate (Pseudomonas aeruginosa, UniProt Q9HWC8 1-122)
T3 construct: also called PA; P. aeruginosa lysate
T3 sequence: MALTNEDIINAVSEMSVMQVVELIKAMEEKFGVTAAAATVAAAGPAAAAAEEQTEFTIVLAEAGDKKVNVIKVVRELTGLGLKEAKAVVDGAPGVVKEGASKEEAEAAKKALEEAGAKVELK

T4: ribosome protein L7/L12 of Bacillus subtilis, native, in bacterial lysate (Bacillus subtilis, UniProt P02394 2-123)
T4 construct: also called BS; B. subtilis lysate
T4 sequence: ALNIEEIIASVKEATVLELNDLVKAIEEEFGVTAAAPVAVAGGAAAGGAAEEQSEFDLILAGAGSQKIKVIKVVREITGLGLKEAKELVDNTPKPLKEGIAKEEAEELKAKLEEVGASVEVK


Tests used:
[1] = target: T1, recombinant ribosomal protein L7/L12 of …; test: ELISA, recombinant L7/L12 (10 ng/mL) coated
Source text: (§1) The thus-produced Specific Antibodies A to C (antibodies of the present invention) and Generic Antibodies A and B were used to obtain data on the reactivity with ribosome protein L7/L12 of plural genera of Enterobacteriaceae bacteria by means of ELISA. Seven species of Enterobacteriaceae bacteria were selected for the study: Escherichia coli (EC), Klebsiella pneumoniae (KP), Citrobacter freundii (CF), Enterobacter cloacae (ECL), Proteus mirabilis (PM), Salmonella enterica (SE), and Serratia liquefaciens (SL), which are frequently detected in food, beverage, environmental, or biological samples. Four species of bacteria other than Enterobacteriaceae (non-Enterobacteriaceae bacteria) were also selected for the study: Pseudomonas aeruginosa (PA), Staphylococcus aureus (SA), Bacillus subtilis (BS), and Enterococcus faecalis (EF), which are frequently detected in food, beverage, environmental, or biological samples. E. coli transformed with expression vectors incorporating DNA encoding the amino acid sequence of ribosomal protein L7/L12 of each of the above seven Enterobacteriaceae and four non-Enterobacteriaceae species were cultured using, e.g., LB medium, and the ribosomal protein L7/L12 was purified as a fusion protein by affinity columns using tag sequences derived from the expression vector.
(§2) 50 μL of 10 ng/mL solution of the ribosomal protein L7/L12 of each bacterial species was dropped into each well of a 96-well polystyrene plate for ELISA and solidified on the bottom of the plate. After washing each well three times with PBS-T (PBS with Tween 20), blocking treatment was performed with PBS containing 1% BSA (Bovine Serum Albumin). After blocking, the wells were washed three times with PBS-T, and 50 µL of 10 μg/mL solution of each of the Specific Antibodies A to C and Generic Antibodies A and B was dropped into each well for 1 hour for antigen-antibody reactions. After the reactions, the samples were washed three times with PBS-T, and then 0.5 μg/mL of HRP (Horse Radish Peroxidase) labeled secondary antibody (Goat Anti-mouse IgG: Goat Anti-mouse IgG), which is the enzyme for detection, was added dropwise. After the reaction, the wells were washed five times with PBS-T, and 100 μL of a mixture of tetramethylbenzidine (TMB) and hydrogen peroxide, the chromogenic substrate, was added dropwise to each well for the chromogenic reaction.

[2] = target: T2, recombinant ribosomal protein L7/L12 of …; test: ELISA, recombinant L7/L12 (10 ng/mL) coated
Source text: as §1, §2

[3] = target: T3, ribosome protein L7/L12 of Pseudomonas …; test: ELISA, bacterial lysate coated
Source text: (§3) The thus-produced Specific Antibodies A to C (antibodies of the present invention) and Generic Antibodies A and B were used to obtain data on the reactivity with plural genera of Enterobacteriaceae bacteria and bacteria other than Enterobacteriaceae (non-Enterobacteriaceae bacteria) by means of ELISA. […] The seven species of Enterobacteriaceae bacteria and four species of non-Enterobacteriaceae bacteria described above were purchased and cultured from ATCC, prepared at 1×e⁸ cfu/mL each, and suspended in PBS. Each bacterium was lysed by sonication, and debris was removed by filtration through a filter with a 0.45-μm mesh opening to obtain the bacterial lysate of each bacterium.
(§4) 50 μL of the above bacterial lysate was dropped into each well of a 96-well polystyrene plate for ELISA and solidified on the bottom of the plate. After washing each well three times with PBS-T (PBS with Tween 20), blocking treatment was performed with PBS containing 1% BSA (Bovine Serum Albumin). After blocking, the wells were washed three times with PBS-T, and 50 μL of 10 μg/mL solution of each of the Specific Antibodies A to C and Generic Antibodies A and B was dropped into each well for 1 hour for antigen-antibody reactions. After the reactions, the samples were washed three times with PBS-T, and then 0.5 μg/mL of HRP (Horse Radish Peroxidase) labeled secondary antibody (Goat Anti-mouse IgG: Goat Anti-mouse IgG), which is the enzyme for detection, was added dropwise. After the reaction, the wells were washed five times with PBS-T, and 100 μL of a mixture of tetramethylbenzidine (TMB) and hydrogen peroxide, the chromogenic substrate, was added dropwise to each well for the chromogenic reaction.

[4] = target: T4, ribosome protein L7/L12 of Bacillus …; test: ELISA, bacterial lysate coated
Source text: as §3, §4

[5] = target: recombinant ribosomal protein L7/L12 of Escherichia coli, tag fusion protein (Escherichia coli, UniProt P0A7K2 1-121); test: ELISA, recombinant L7/L12 coated, antibody 10 ug/mL; +: A450 >=0.3
Sequence of recombinant ribosomal protein L7/L12 of Escherichia coli, tag fusion protein (P0A7K2 whole entry, the tested form may be a part): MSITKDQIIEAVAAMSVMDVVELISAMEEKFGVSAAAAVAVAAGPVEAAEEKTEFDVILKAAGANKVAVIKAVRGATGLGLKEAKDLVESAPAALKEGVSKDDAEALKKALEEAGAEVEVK
Source text: as §1, §2

[6] = target: T4, ribosome protein L7/L12 of Bacillus …; test: lateral-flow sandwich kit (a) on lysate; capture Specific Antibody A, gold-labelled detection Generic Antibody A

Row | Binder | binding result [1] | binding result [2] | binding result [3] | binding result [4] | binding result [5] | binding result [6]
1 | Specific Antibody B (EC149C3) (antibody, V domains shown) VH: QVQLQQSGAELVKPGASVKLSCKASDYTFTNFYIYWVKQRPGQGLEWIGEINPSNGYTTFNVKFKSKATLTVDKSSSTAYMQLSSLTSEDSAVYYCTRNYGGSRCAYWGQGTLVTVSA VL: DVLMTQTPLSLPVSLGDQASISCRSSQSIVHSNGNTYLEWYLQKPGQSPKLLIYKVSNRFSGVPDRFSGSGSGTDFTLKISRVEAEDLGVYYCFQGSHVPWTFGGGTKLEIK | no binding (tested: Absorbance <0.3 at 10 ug/mL antibody) | no binding (tested: Absorbance <0.3 at 10 ug/mL antibody) | no binding (tested: Absorbance <0.3 at 10 ug/mL antibody) | no binding (tested: Absorbance <0.3 at 10 ug/mL antibody) |  | 
2 | Generic Antibody B (CP141A190.1) (antibody, V domains shown) VH: QVQLQQPGAELVKPGASVKLSCKTSGYNFTSNWIHWVKQRPGQGLEWIGEINPSNGRANYNEKFKNKATLTVDKSSSTAFMHLSSLTSEDSAVYFCSRGDFDEGFTYWGQGTLVTVSA VL: QIVLTQSPAIMSASLGERVTMTCTASSNVNSDYLHWYQQKPGSSPRLWIYTTSNLASGVPTRFSGNGSGTSYSLTISSMEAEDAATYYCHQYHRSPRTFGGGTKLEIK |  |  |  |  | binds | 
3 | Specific Antibody A (EC50C1) (antibody, V domains shown) VH: QVQLQQSGAELAKPGASVKMSCKASGYTFTSYWMNWVKQRPGQGLEWIGYINPNTGYTEYDQKFKDKATLTADKSSSTAYMQLSSLTSEDSAVYYCARYWAYFEYWGQGTTLTVSS VL: DIKMTQSPSSMYASLGERVTITCKASQDINSYLSWFQQKPGKSPKTLIYRANRLVDGVPSRFSGSGSGQDYSLTISSLEYEDMGIYYCLQYDEFRTFGGGTKLEIK | no binding (tested: Absorbance <0.3 at 10 ug/mL antibody) | no binding (tested: Absorbance <0.3 at 10 ug/mL antibody) | no binding (tested: Absorbance <0.3 at 10 ug/mL antibody) |  | binds | no binding (tested: Visually negative)
4 | Specific Antibody C (EC162A3) (antibody, V domains shown) VH: QVQLQQSGTELAKPGASVQMSCKASGYTFTSYWMHWVKQRPGQGLEWIGYINPNTGYTEYNQQFKDKATLTADKSSSTAYMQLSSLTSEDSAVYYCANYFAWFGYWGQGTLVTVSA VL: DIKMTQSPSSMYASLGERVTVTCKASQDIYSYLNWFQQKPGKSPKTLIYRANRLVDGVPSRFSGSGSGQEYSLTISSLEHEDMGIYYCLQHDQHPYTFGSGTKLEIK | no binding (tested: Absorbance <0.3 at 10 ug/mL antibody) | no binding (tested: Absorbance <0.3 at 10 ug/mL antibody) | no binding (tested: Absorbance <0.3 at 10 ug/mL antibody) | no binding (tested: Absorbance <0.3 at 10 ug/mL antibody) | binds | 
5 | Generic Antibody A (PA51B2) (antibody, V domains shown) VH: QVQLQQPGSVLVRPGASVKLSCKPSGYTFTGSWMHWTKQRPGQGLEWIGEIHPYSGNTNYNEKFRVKATLTVDTSSSTTYVDLSSLTSDDSAVYYCASGDFDAGFTYWGQGTLVTVSA VL: DIVLTQSPASLAVSLGRRATISCKASQSVDYDGDSYMNWYQQKPGQPPKLLIYVASNLESGIPARFSGSGSGTDFTLNIHPVEEEDAATYYCQQTNEDPFTFGAGTKLELK |  |  |  |  | binds | 
